The subject of the assay is MDA-MB-435 cells. In words: Phosphotyrosine immunoblot, MDA-MB-435 cells. The class given is cell-based, human. The procedure: Cell culture, preparation and stimulation—T24 cells were maintained in RPMI 1640 medium containing 5% fetal bovine serum, and MDA-MB-435 and 293 cells were maintained in Dulbecco's modified Eagle's medium with 10% serum at 37° C. in 5% CO2. Cells were washed with phosphate-buffered saline (PBS) and starved in the appropriate serum-free medium for 6 h at 37° C. Cells were detached by brief treatment with 0.05% trypsin/0.02% EDTA in PBS and collected by centrifugation, resuspended in soybean trypsin inhibitor (1 mg/ml in serum-free medium), and washed in 2% bovine serum albumin/serum-free medium. Cells were maintained in suspension for 1 h in 2% bovine serum albumin/serum-free medium at 37° C. with end-over-end agitation. Quiescent cells (3×10^6/ml) were treated with disintegrins or other reagents while in suspension, or were allowed to adhere to Matrigel (Becton Dickinson, Bedford, Mass.) diluted 1:100 with serum-free medium during treatment.
Lysate preparation and immunoprecipitation—Suspended and adherent cells were washed twice with cold PBS and lysed in cold lysis buffer (50 mM Tris, pH 8.0, 150 mM NaCl, 1% Nonidet P-40, 0.5% deoxycholate, 0.1% SDS, protease inhibitor cocktail, 1 mM sodium pyrophosphate, 1 mM sodium orthovanadate, 50 mM sodium fluoride). After 10-15 min incubation on ice, insoluble material was removed by centrifugation at 14,000 RPM in a microcentrifuge for 15 min. Supernatants were collected and total protein concentrations standardized by the BCA protein assay (Pierce, Rockford, Ill.). Immunoprecipitation was carried out by incubating whole cell lysates (200 μg total protein) with 1.25 μg anti-FAK or anti-CAS mAb 4-6 h at 4° C. followed by 20 μl protein G-agarose overnight at 4° C. Immunoprecipitates were washed 4 times in lysis buffer without inhibitors and dissociated by adding SDS-PAGE sample buffer and boiling 5 min. Whole cell lysates (30 μg total protein) or immunoprecipitates were resolved by 7.5% SDS-polyacrylamide gel electrophoresis and transferred to nitrocellulose membranes.
Immunoblotting—Membranes were blocked with 5% nonfat milk/Tris-buffered saline/0.1% Tween 20 (blocking buffer) 1 h at room temperature or overnight at 4° C. Primary antibody incubations were performed in blocking buffer for 1 h at room temperature. After washing in Tris-buffered saline/0.1% Tween 20, membranes were incubated with horseradish peroxidase-conjugated secondary antibody in blocking buffer 1 h at room temperature. Membranes were washed extensively. Inimunoblots were developed using Super Signar West Pico Chemiluminescent Substrate from Pierce. Densitometry was performed using UN-SCAN-IT™, software (Silk Scientific, Orem, Utah))
Background: In western blotting, separated proteins are transferred to a membrane and probed.

B1: flavoridin: monomeric disintegrin obtained from Sigma (protein)
chain: GEECDCGSPSNPCCDAATCKLRPGAQCADGLCCDQCRFKKKRTICRIARGDFPDDRCTGLSNDCPRWNDL
B1: the “effect on contortrostatin (10 nM)-induced tyrosine phosphorylation” value (1 μM, added simultaneously, 10 min) was “completely abrogated”. Moreover, the “effect alone on tyrosine phosphorylation” value (concentrations up to 1 μM) is “no effect on tyrosine phosphorylation”.

B2: monomeric vitronectin: soluble monomeric vitronectin (protein, UniProt P04004 20-478, looked up)
Vitronectin: DQESCKGRCTEGFNVDKKCQCDELCSYYQSCCTDYTAECKPQVTRGDVFTMPEDEYTVYDDGEEKNNATVHEQVGGPSLTSDLQAQSKGNPEQTPVLKPEEEAPAPEVGASKPEGIDSRPETLHPGRPQPPAEEELCSGKPFDAFTDLKNGSLFAFRGQYCYELDEKAVRPGYPKLIRDVWGIEGPIDAAFTRINCQGKTYLFKGSQYWRFEDGVLDPDYPRNISDGFDGIPDNVDAALALPAHSYSGRERVYFFKGKQYWEYQFQHQPSQEECEGSSLSAVFEHFAMMQRDSWEDIFELLFWGRTSAGTRQPQFISRDWHGVPGQVDAAMAGRIYISGMAPRPSLAKKQRFRHRNRKGYRSQRGHSRGRNQNSRRPSRATWLSLFSSEESNLGANNYDDYRMDWLVPATCEPIQSVFFFSGDKYYRVNLRTRRVDTVDPPYPRSIAQYWLGCPAPGHL
For the molecule B2, the “stimulation of tyrosine phosphorylation” value (10 μg/ml, data not shown) was “failed to stimulate tyrosine phosphorylation”.
